B1: Vinculin (Gallus gallus (Chicken)), P12003-1 (parent)
chain: MPVFHTRTIESILEPVAQQISHLVIMHEEGEVDGKAIPDLTAPVSAVQAAVSNLVRVGKETVQTTEDQILKRDMPPAFIKVENACTKLVRAAQMLQADPYSVPARDYLIDGSRGILSGTSDLLLTFDEAEVRKIIRVCKGILEYLTVAEVVETMEDLVTYTKNLGPGMTKMAKMIDERQQELTHQEHRVMLVNSMNTVKELLPVLISAMKIFVTTKNTKSQGIEEALKNRNFTVEKMSAEINEIIRVLQLTSWDEDAWASKDTEAMKRALALIDSKMNQAKGWLRDPNAPPGDAGEQAIRQILDEAGKAGELCAGKERREILGTCKTLGQMTDQLADLRARGQGATPMAMQKAQQVSQGLDLLTAKVENAARKLEAMTNSKQAIAKKIDAAQNWLADPNGGSEGEEHIRGIMSEARKVAELCEEPKERDDILRSLGEISALTAKLSDLRRHGKGDSPEARALAKQIATSLQNLQSKTNRAVANTRPVKAAVHLEGKIEQAQRWIDNPTVDDRGVGQAAIRGLVAEGRRLANVMMGPYRQDLLAKCDRVDQLAAQLADLAARGEGESPQARAIAAQLQDSLKDLKARMQEAMTQEVSDVFSDTTTPIKLLAVAATAPSDTPNREEVFEERAANFENHAARLGATAEKAAAVGTANKTTVEGIQATVKSARELTPQVVSAARILLRNPGNQAAYEHFETMKNQWIDNVEKMTGLVDEAIDTKSLLDASEEAIKKDLDKCKVAMANMQPQMLVAGATSIARRANRILLVAKREVENSEDPKFREAVKAASDELSKTISPMVMDAKAVAGNISDPGLQKSFLDSGYRILGAVAKVREAFQPQEPDFPPPPPDLEHLHLTDELAPPKPPLPEGEVPPPRPPPPEEKDEEFPEQKAGEAINQPMMMAARQLHDEARKWSSKGNDIIAAAKRMALLMAEMSRLVRGGSGNKRALIQCAKDIAKASDEVTRLAKEVAKQCTDKRIRTNLLQVCERIPTISTQLKILSTVKATMLGRTNISDEESEQATEMLVHNAQNLMQSVKETVREAEAASIKIRTDAGFTLRWVRKTPWYQ

Variants of: B1
Settings: with arpc2_mouse Arpc2, Q9CVB6

Row | Variant | effect of a mutation on the interaction
1 | P878A | disrupting interaction

From IntAct's records for PubMed 12473693
